What all share (conditions): protein: recombinant, tags: 6xHis removed by thrombin, residual N-terminal GSH
One data set addresses T1, Redβ K61A (bacteriophage λ, UniProt P03698 1-261, K61A).
T1 sequence: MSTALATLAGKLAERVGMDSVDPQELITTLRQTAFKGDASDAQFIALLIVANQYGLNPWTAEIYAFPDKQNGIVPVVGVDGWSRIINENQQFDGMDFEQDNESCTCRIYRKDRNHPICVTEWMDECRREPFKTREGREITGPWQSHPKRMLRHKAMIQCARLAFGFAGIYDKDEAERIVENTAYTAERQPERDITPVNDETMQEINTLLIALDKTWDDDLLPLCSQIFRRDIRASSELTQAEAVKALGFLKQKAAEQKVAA
Put plainly: EMSA; PBS; Anisotropy: 50 mM Tris-HCl pH 7.5, 1 mM DTT, 0.1 mg/mL BSA, 10 nM FAM48, 23 °C (Kd per monomer); gel assay: 10 µM Redβ, 50 µM nt of each oligo, PBS, 37 °C, 1% agarose at 22 °C.

The target in another data set is T2, Redβ K111A (bacteriophage λ, UniProt P03698 1-261, K111A).
T2 sequence: T1 sequence with A61K, K111A
Described as above.

Another data set addresses T3, Redβ K148A (bacteriophage λ, UniProt P03698 1-261, K148A).
T3 sequence: T1 sequence with A61K, K148A
The description is as above.

Another data set deals with T4, Redβ K132A (bacteriophage λ, UniProt P03698 1-261, K132A).
T4 sequence: T1 sequence with A61K, K132A
Described as above.

A further data set has as its target T5, Redβ K154A (bacteriophage λ, UniProt P03698 1-261, K154A).
T5 sequence: T1 sequence with A61K, K154A
Described as above.

The next data set deals with T6, Redβ K172A (bacteriophage λ, UniProt P03698 1-261, K172A).
T6 sequence: T1 sequence with A61K, K172A
The description is as above.

For another data set, the target named is T7, Redβ K69A (bacteriophage λ, UniProt P03698 1-261, K69A).
T7 sequence: T1 sequence with A61K, K69A
Put plainly: EMSA; PBS; enhanced vs WT; Anisotropy: 50 mM Tris-HCl pH 7.5, 1 mM DTT, 0.1 mg/mL BSA, 10 nM FAM48, 23 °C (Kd per monomer); gel assay: 10 µM Redβ, 50 µM nt of each oligo, PBS, 37 °C, 1% agarose at 22 °C.

Residue numbers refer to the chain shown, from its start.

B1: Cy3 50-mer ssDNA (ssDNA)
DNA: GCGGATGGCTTAGAGCAGAATCGCCCTGCATAGCTCGATTTTTGCGGATG
On to B1, for which the binding result with Redβ K61A (label: 5'-Cy3), in the data set with Redβ K111A (label: 5'-Cy3), with Redβ K148A (label: 5'-Cy3), in the data set with Redβ K132A (label: 5'-Cy3), with Redβ K154A (label: 5'-Cy3) and with Redβ K172A (label: 5'-Cy3) was “no binding” throughout. Moreover, in the data set with Redβ K69A (label: 5'-Cy3), the binding result was “binds”.

B2: Cy5 50-mer ssDNA (ssDNA)
DNA: CCATCCGCAAAAATCGAGCTATGCAGGGCGATTCTGCTCTAAGCCATCCG
Turning to B2, the binding result with Redβ K61A (label: 5'-Cy5), with Redβ K111A (label: 5'-Cy5), in the data set with Redβ K148A (label: 5'-Cy5), with Redβ K132A (label: 5'-Cy5), with Redβ K154A (label: 5'-Cy5) and with Redβ K172A (label: 5'-Cy5) was “no binding” throughout. The binding result with Redβ K69A (label: 5'-Cy5) was “binds”.

The record behind these values is article PMC8303780, “Mutational Analysis of Redβ Single Strand Annealing Protein: Roles of the 14 Lysine Residues in DNA Binding and Recombination In Vivo”.
